These sequences were tested on MS2 coat protein (assay: apparent KD of MS2 coat protein; higher = weaker reporter binding). Settings: Eterna round: R107; input ligand: theophylline 2 mM.
How it was run: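 On-chip transcription from Illumina sequencing clusters produced the designed RNA switches. These were titrated with SNAP-549-labelled MS2 coat protein (twofold steps, 0.7 or 1.5 nM to 3 µM) in 100 mM Tris-HCl pH 7.5, 80 mM KCl, 4 mM MgCl2, with or without constant ligand. The apparent KD given is the per-design median of normalised cluster binding-curve fits.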

| Sequence | apparent KD of MS2 coat protein [nM] |
| --- | --- |
| CUAUAGAUAAGAAGGAGCGUCGAAAAUGGGUAAACAUGAGGAUCACCCAUGUAAAGGGAACGACAGGUAGGUCGCUUAUUUAUAG [AstromonsSSArgB#6] | 226 |
| UCAGUGCAAGGAAGGAGCGGGUACAUGAGGAUCACCCAUGUGCAAGUGGUGAGUGUUCGUGCCCAGGUAGGUCGCCUAGCCUGGU [XArg-B19] | 348 |
| UUCGCUGAGGGAAGGAGCGUGAAGACAUGAGGAUCACCCAUGUAGAGGCGCCGAAGGCGUUCGCAGGUAGGUCGCCCUCAGUGAG [#1 Same State - Arginine B Attempt #23 (HarryS)] | 17.7 |
| UGUCACUGUUUGGUUCAAUGAAGAAGAAUUCGAGGACCGGUACGGCCGCCACUCGCUAUGCAACAUGAGGAUCACCCAUGUAAAA [theeternabot_exclusion_MS2_Trp_A_31] | 17.3 |
| GAUAUGAUAAGAAGGAGCGUCGAAAAUGGGUAAACAUGAGGAUCACCCAUGUAAAGGGAACGACAGGUAGGUCGCUUAUUAUAUC [AstromonsSSArgB#19] | 251 |
| AUUUAUUAGACGGCCGCCACUUGAAAGCGACCUCAUAAAUGGGAACAUGAGGAUCACCCAUGUAAGAGGACCGGGUCUAGUAGAU [TryptB-ms2@45] | 318 |
| CGGCCCUCACCUGAGGAACACCCAGGUGAUACCAGCCUGGAAACAGGCCCUUGGCAGCACCAGGUCAUCAAAGAUGACCAAGCCG [TheoAX 24 #SwitchBubble #AlternativeMS2] | 171 |
| UGUAUGGACUGAAGGAGCGGUAGAUAACUUGAGGAUCACCCAGGUAAUAAGGCGAAAGCCUACCAGGUAGGUCGCAGUCCAUACU | 153 |

Same assay, conditions: Eterna round: R107; input ligand: tryptophan 2.4 mM

| Sequence | apparent KD of MS2 coat protein [nM] |
| --- | --- |
| ACUAGUUGUGCAGAUACCAGACAUGAGGAUCACCCAUGUUUGGGAUGUUCGCAUCUUCCUGUCCCUUGGCAGCUGUACAUCUAGA [Omei Theo B Exc v4] | 86.2 |
| AUGGUUGUCGCGGCCGCCACUGUCGGCCGCCACUAAACAUGAGGAUCACCCAUGUAGGACCGGGACAGGACCGGGUGAUAACCAC [TryBS - #DoubleAptamer 3] | 14.3 |
| AGUCUUGAACGAAGGAGCGACGUACAUGAGGAUCACCCAUGUGUGGAGCGAAAGCUCCAACGUCAGGUAGGUCGCGUUCGAGACA [Omei Arginine B SS A v2] | 13.9 |
| AGCGACAUGCGUGAUACCAGCUACAUGAGGAUCACCCAUGUACGUAGGAAACUACUGUGUAGCCCUUGGCAGCAUAGUGCAUGUC [Exclusion - Theophylline B (Freestyle 21)] | 13.5 |
| AUCGUACCUGAUGAUACCAGCAUGUGAUCGUAACAUGAGGAUCACCCAUGUAAUCAGUGAUGCCCUUGGCAGCAUGAUCGGUACA [Same State - Theophylline B (Freestyle 14)] | 94.9 |
| UCGCUCUGGGUGAAUUCCGGAGAUGUGGAAGGAGCGGACGAAAGUCCAGGUAGGUCGCCAUCGGACAUGAGGAUCACCCAUGUAC [Same State - Arginine A (Freestyle 22)] | 89.9 |
| UUGGAUAUGCGAAGGAGCGGGAAAUAUAUAUAUAUAAUCCUAACAUGAGGAUCACCCAUGUCCCAGGUAGGUCGCGCAUAUUUGG [12.H] | 49.9 |
| UUACAUGAGGAUCACCCAUGUCAUACAGAAGGAGCGUCACAUAAGACAGGUAGGUCGCUGUUAUAUCAUACUAUUAUAUCCUCUA [JR_Nu_ExcArginiA_Sub028] | 33 |
| UCGUGUAUAUCGGAUACCAGUGAAAUCGAUACAUGAGGAUCACCCAUGUGAGAGGAUGUACACCCUUGGCAGCUGUAUAUAUCUA | 25.1 |
| ACAAGAGGUGGAAGGAGCGGGAGACAUGAGGAUCACCCAUGUGAAGUUUCGAGAGGAUCAUCCCAGGUAGGUCGCCAUGUCGAAA [ojjomullin] | 49.7 |
| CUUGGUAGAUCCUAGCUGCCAAGAGGUGAUACCAGCAUCGAAAGAUGCCCUUGGCAGCACCAACAUGAGGAUCACCCAUGUAAUA [(MT)''-(M)'-(T')-(Theo)-(Ms2)_Design1/22_4] | 77.4 |
| AACAUGAGGGCGGCCGCCACUCCAUGAACAUGAGGAUCACCCAUGUUGAGGAUCACCCAUGUUGUGAGGACCGGGCCACAUGAGG [Exclusion Tryptophan B 3] | 89.6 |
| GCGAUGGAGCGAAGGAGCGGCUGUGACUACAUGAGGAUCACCCAUGUACGAUCGUAAGGUAGCCAGGUAGGUCGCGCUCCAUCGC [SSAB NP+V+V2 #17] | 26.2 |
| AGCCCUGUGCUAGAUACCAGCUACAUGAGGAUCACCCAUGUGCGUCAGAAAUGACUGUGUAGCCCUUGGCAGCUAAAUGCAUGUA [Exclusion - Theophylline B (Freestyle 7)] | 11 |
| UGGUGUAGGGUAAAUAGGCUGAGUACAGAAGGAGCGCGAAUAAACGCAGGUAGGUCGCUGGACACAUGAGGAUCACCCAUGUUGA [Same State Arginine A GF 29] | 21.2 |
| AAGUGGCACGGAAGGAGCGAGUUUACCUAGAUAACAUGAGGAUCACCCAUGUAUAAUGGGACUCAGGUAGGUCGCCGUUGUCACU [#29 Same State - Arginine B] | 30.7 |

| Sequence | apparent KD of MS2 coat protein [nM] |
| --- | --- |
| AUACAUGAGGAUCACCCAUGUCAUACAGAAGGAGCGUCACAUAAGACAGGUAGGUCGCUGAUAAAUGGAUUAUAGUUUAUGAUUA [JR_SSArginiA_Sub016] | 18.7 |
| AGUCUUAUAGGAAGGAGCGCAUACUUCACAUGAGGAUCACCCAUGUCAAGACGUGAGUCAGUGCAGGUAGGUCGCCUAACUAAGA [Same State - Arginine B (Freestyle 13)] | 27.7 |
| ACGCCCAGGUAGGCUUAGUGGGAUAUGGAAGGAGCGCCGAUGCAGGCAGGUAGGUCGCCAUAGAACAUGAGGAUCACCCAUGUAA [#05 Same State - Arginine A] | 27.1 |
| CAGCCACAUGAGGAUCACCCAUGUGAUGAUACCAGCUUCGUCUUAAGCCCUUGGCAGCAUAUCUCUUUGUUCUCAUACAUAGCAU [theeternabot_sameState_MS2_Theo_A_16] | 11.4 |
| GAACAUAAGGAUAGUAUAAUAACUACAGAAGGAGCGUCAGGAAGGACAGGUAGGUCGCUGGAAGACAUGAGGAUCACCCAUGUUU [#03 Same State - Arginine A] | 17.1 |
| AUCCACAGCCGAAGGAGCGCUAUAGGAUGACAUGAGGAUCACCCAUGUGUGUGAUGUGGAUAGCAGGUAGGUCGCGGAGUGGAUU [Exclusion - Arginine B (Freestyle 10)] | 26.3 |
| AUAUUUAAUGGAAGGAGCGCGGAUAAUAAAGUGGGUAAACAUGAGGAUCACCCAUGUAAACCGCAGGUAGGUCGCCGAAAUAUAU [AstrosEXyARgB#8] | 47 |
| UGUAUGUGAUCUGAUACCAGUCCAACUGGUAAAACCUGAGGAACACCCAGGUAAAAUUGGGACCCUUGGCAGCAGAUCGCAUACU | 264 |
| CUAUAGAUAAGAAGGAGCGUCGAAAAUGGGUAAACAUGAGGAUCACCCAUGUAAAGGGAACGACAGGUAGGUCGCUUAUUUAUAG [AstromonsSSArgB#6] | 145 |
| UCAGUGCAAGGAAGGAGCGGGUACAUGAGGAUCACCCAUGUGCAAGUGGUGAGUGUUCGUGCCCAGGUAGGUCGCCUAGCCUGGU [XArg-B19] | 54.5 |
| UUCGCUGAGGGAAGGAGCGUGAAGACAUGAGGAUCACCCAUGUAGAGGCGCCGAAGGCGUUCGCAGGUAGGUCGCCCUCAGUGAG [#1 Same State - Arginine B Attempt #23 (HarryS)] | 17.3 |
| AAUAAAUCACAUGAGGAUCACCCAUGUGAUACCAGCCUGGAAACAGGCCCUUGGCAGCACAUGAGGAUCACCCAUGUGCUAAAUA [TheoAX 1 #DoubleMS2 #OpenEnded] | 8.43 |
| GAUAUGAUAAGAAGGAGCGUCGAAAAUGGGUAAACAUGAGGAUCACCCAUGUAAAGGGAACGACAGGUAGGUCGCUUAUUAUAUC [AstromonsSSArgB#19] | 134 |
| CGGCCCUCACCUGAGGAACACCCAGGUGAUACCAGCCUGGAAACAGGCCCUUGGCAGCACCAGGUCAUCAAAGAUGACCAAGCCG [TheoAX 24 #SwitchBubble #AlternativeMS2] | 19.2 |
| UGUAUGGACUGAAGGAGCGGUAGAUAACUUGAGGAUCACCCAGGUAAUAAGGCGAAAGCCUACCAGGUAGGUCGCAGUCCAUACU | 138 |
| CUUGUCGUAACUGAUACCAGUGUACUGACAUGAGGAUCACCCAUGUUGGGUUUUGUUGUACACCCUUGGCAGCAGAAUCGAUAAG [AstrosExyTheB#9] | 71.3 |
